Test results from the Immune Epitope Database (IEDB).

Key:
HLA-A*02:03 = experiment: IEDB peptide-MHC binding, purified MHC/competitive/fluorescence; filed as Kd, often an IC50 or EC50 that approximates it; ≥ and ≤ were set here for values at or beyond the usual limits of such assays
HLA-A*02:12 = experiment: IEDB peptide-MHC binding, purified MHC/direct/fluorescence; filed as Kd, often an IC50 or EC50 that approximates it; ≥ and ≤ were set here for values at or beyond the usual limits of such assays; details: source organism: Geobacillus sp. WCH70
HLA-A*02:06 = experiment: as above; details: source organism: Geobacillus sp. WCH70
HLA-A*02:01 [1] = experiment: as above
HLA-A*11:01 [2] = experiment: IEDB peptide-MHC binding, purified MHC/competitive/fluorescence; filed as Kd, often an IC50 or EC50 that approximates it; ≥ and ≤ were set here for values at or beyond the usual limits of such assays; details: source organism: Vaccinia virus Copenhagen
HLA-B*08:01 [3] = experiment: as above; details: source organism: Vaccinia virus Copenhagen
HLA-A*30:01 = experiment: as above; details: source organism: Vaccinia virus Copenhagen
HLA-B*07:02 [4] = experiment: as above; details: source organism: Vaccinia virus Copenhagen
HLA-A*68:02 [5] = experiment: IEDB peptide-MHC binding, purified MHC/direct/fluorescence; filed as Kd, often an IC50 or EC50 that approximates it; ≥ and ≤ were set here for values at or beyond the usual limits of such assays; details: source organism: Camelpox virus M-96
HLA-B*08:03 = experiment: as above; details: source organism: Variola virus
HLA-B*57:01 [6] = experiment: as above; details: source organism: Camelpox virus M-96
HLA-B*27:05 = experiment: as above; details: source organism: Camelpox virus M-96
HLA-B*15:01 = experiment: as above; details: source organism: Camelpox virus M-96
HLA-A*69:01 = experiment: as above; details: source organism: Camelpox virus M-96
HLA-B*18:01 [7] = experiment: as above; details: source organism: Camelpox virus M-96
HLA-B*48:01 = experiment: as above; details: source organism: Camelpox virus M-96
HLA-A*26:03 = experiment: as above; details: source organism: Variola virus
HLA-B*58:01 [8] = experiment: as above; details: source organism: Camelpox virus M-96
HLA-A*01:01 [9] = experiment: as above; details: source organism: Camelpox virus M-96
HLA-B*15:17 = experiment: as above; details: source organism: Camelpox virus M-96
HLA-A*68:02 [10] = experiment: IEDB peptide-MHC binding, purified MHC/competitive/fluorescence; ≥ and ≤ were set here for values at or beyond the usual limits of such assays; details: source organism: Mus musculus
HLA-A*31:01 = experiment: as above; details: source organism: Mus musculus
HLA-B*35:01 = experiment: as above; details: source organism: Mus musculus
HLA-B*53:01 = experiment: as above; details: source organism: Mus musculus
HLA-A*29:02 [11] = experiment: as above; details: source organism: Mus musculus
HLA-A*11:01 [12] = experiment: as above; details: source organism: Mus musculus
HLA-B*14:02 = experiment: as above; details: source organism: Mus musculus
HLA-A*24:02 = experiment: as above; details: source organism: Mus musculus
HLA-B*08:01 [13] = experiment: as above; details: source organism: Mus musculus
HLA-B*37:01 = experiment: as above; details: source organism: Mus musculus
HLA-B*44:03 = experiment: as above; details: source organism: Mus musculus
HLA-A*03:01 = experiment: as above; details: source organism: Mus musculus
HLA-B*07:02 [14] = experiment: as above; details: source organism: Mus musculus
HLA-B*51:01 = experiment: as above; details: source organism: Mus musculus
HLA-A*25:01 = experiment: as above; details: source organism: Mus musculus
HLA-B*18:01 [15] = experiment: as above; details: source organism: Mus musculus
HLA-A*02:01 [16] = experiment: as above; details: source organism: Mus musculus
HLA-B*40:02 = experiment: as above; details: source organism: Mus musculus
HLA-B*58:01 [17] = experiment: as above; details: source organism: Mus musculus
HLA-A*01:01 [18] = experiment: as above; details: source organism: Mus musculus
HLA-B*15:02 = experiment: IEDB peptide-MHC binding, purified MHC/competitive/fluorescence; filed as Kd, often an IC50 or EC50 that approximates it; ≥ and ≤ were set here for values at or beyond the usual limits of such assays; details: source organism: Homo sapiens
HLA-B*46:01 = experiment: as above; details: source organism: Homo sapiens
HLA-B*57:01 [19] = experiment: IEDB peptide-MHC binding, purified MHC/competitive/radioactivity; filed as Kd, often an IC50 or EC50 that approximates it; ≥ and ≤ were set here for values at or beyond the usual limits of such assays; details: source organism: Homo sapiens
HLA-A*29:02 [20] = experiment: as above; details: source organism: Homo sapiens
HLA-A*02:07 = experiment: as above; details: source organism: Homo sapiens
HLA-A*02:01 [21] = experiment: as above; details: source organism: Homo sapiens
HLA-B*58:01 [22] = experiment: as above; details: source organism: Homo sapiens

GLPESTPSL was tested, and the Kd (HLA-A*02:03; source organism: Bacillus anthracis str. A0488) was 0.0214 µM, the Kd (HLA-A*02:12) was 0.12 µM and the Kd (HLA-A*02:06) was 0.014 µM. It also gave a Kd (HLA-A*02:01 [1]; source organism: Bacillus cereus) of 0.0121 µM.
Work on NRLKPRDFK yielded a Kd (HLA-A*11:01 [2]) of at least 20 µM, a Kd (HLA-B*08:01 [3]) of 3 µM and a Kd (HLA-A*30:01) of at least 20 µM. The Kd (HLA-B*07:02 [4]) was 3 µM, the Kd (HLA-A*02:03; source organism: Vaccinia virus Copenhagen) was at least 20 µM and the Kd (HLA-A*68:02 [5]) was at least 20 µM. The Kd (HLA-B*08:03) was at least 20 µM, the Kd (HLA-B*57:01 [6]) was at least 20 µM and the Kd (HLA-B*27:05) was 1.79 µM. It also gave a Kd (HLA-B*15:01) of at least 20 µM, a Kd (HLA-A*69:01) of at least 20 µM and a Kd (HLA-B*18:01 [7]) of at least 20 µM. The Kd (HLA-A*02:01 [1]; source organism: Camelpox virus M-96) was at least 20 µM, the Kd (HLA-B*48:01) was at least 20 µM and the Kd (HLA-A*26:03) was at least 20 µM. The Kd (HLA-B*58:01 [8]) was at least 20 µM, the Kd (HLA-A*01:01 [9]) was at least 20 µM and the Kd (HLA-B*15:17) was at least 20 µM.
VALFSSCPVAY was tested, and the IC50 (HLA-A*68:02 [10]) was at least 20 µM, the IC50 (HLA-A*31:01) was at least 20 µM and the IC50 (HLA-B*35:01) was 0.0138 µM. The IC50 (HLA-B*53:01) was at least 20 µM, the IC50 (HLA-A*29:02 [11]) was 0.0381 µM and the IC50 (HLA-A*11:01 [12]) was at least 20 µM. The IC50 (HLA-B*14:02) was at least 20 µM, the IC50 (HLA-A*24:02) was at least 20 µM and the IC50 (HLA-B*08:01 [13]) was at least 20 µM. It also gave an IC50 (HLA-B*37:01) of at least 20 µM, an IC50 (HLA-B*44:03) of at least 20 µM and an IC50 (HLA-A*03:01) of at least 20 µM. It also gave an IC50 (HLA-B*07:02 [14]) of at least 20 µM, an IC50 (HLA-B*51:01) of at least 20 µM and an IC50 (HLA-A*25:01) of at least 20 µM. For the same sequence, the IC50 (HLA-B*18:01 [15]) was at least 20 µM, the IC50 (HLA-A*02:01 [16]) was at least 20 µM and the IC50 (HLA-B*40:02) was at least 20 µM. For the same sequence, the IC50 (HLA-B*58:01 [17]) was at least 20 µM and the IC50 (HLA-A*01:01 [18]) was at least 20 µM.
FAFVTDNTY was tested, and the Kd (HLA-B*15:02) was 0.00255 µM, the Kd (HLA-B*46:01) was 0.0131 µM and the Kd (HLA-B*57:01 [19]) was 0.106 µM. The Kd (HLA-A*29:02 [20]) was 0.0441 µM, the Kd (HLA-A*02:07) was at least 77.7 µM and the Kd (HLA-A*02:01 [21]) was at least 78.1 µM. The Kd (HLA-B*58:01 [22]) was 0.084 µM.
